Results published in PMC12377726 (Proceedings of the National Academy of Sciences of the …, 2025).

Target: eOD-GT8 (engineered outer domain germline-targeting version 8), monomer (HIV-1 gp120 engineered outer domain, …)

| Binder | binding result |
| --- | --- |
| G001_gp1_V10_VRC01c_2021-0093 (antibody, V domains shown) VH: QVQLVQSGAEVHNPGASVKVSCKASGYTFSDHYIHWVRQAPGQGLEWMGWINPNSGGTNYAQKFQGWVSMTRDTSITTAYMELSRLRSADTAVYYCAIPGICPGGNCYSYYFDSWGQGTLVSVSS VL: EIVLTQSPGTLSVSPGERATLSCRSSQSVSSLAWYQLKPGQAPRLLIYGAYNRAIGIPDRFSGSGSGTDFTLTISRLEPEDLAVYYCQQYEFFGQGTKLEIK | binds |
| G001_gp1_V10_VRC01c_183 (antibody, V domains shown) VH: QVHPVQSGAEVKKPGASVKVSCEASGYTFSGYYMHWVRQAPGQGLEWMGWINLNSGGTNYAQKFQDRVTMTRDTSISTAYMELSSLRSDDTAFYYCAHNGGNGGTWYFHYWGQGTLVTVSS VL: EIVLTQSPGTLSLSPGERATLSCRASQSVSNNYLAWYQQKPGQAPRLLIYGASRRATGIPDRFSGSGTGTDFTLTISRLEPEDSAVYYCQQYETFGPGTKVDIK | binds |
| G001_gp1_V10_VRC01c_2021-0086 (antibody, V domains shown) VH: not shown VL: EIVMTQSPATLSVSPGERATLSCRASQSVSSNLAWYQQKPGQAPRLLIYGASTRATGIPARFSGSGSGTEFTLTISSLQSEDFAVYYCQQYQTFGQGTKLEIK | binds |
| G001_gp1_V10_VRC01c_2021-0096 (antibody, V domains shown) VH: not shown VL: EIVMTQSPATLSVSPGERATLSCRASQSVSSNLAWYQQKPGQAPRLLIYGASTRATGIPARFSGSGSGTEFTLTISSLQSEDLAVYYCQQYTAFGQGTKVEIK | binds |
| G001_gp1_V10_VRC01c_169 (antibody, V domains shown) VH: QVHLVQSGAEVKKPGASVKVSCKASGYTFTDDYIHWLRQAPGQGLEWMGWINPYSGGTNYAQKFQGRVTMTRDTSINTAYMELSRLRSDDTAVYYCARYQSTFYFDYWGQGTLVTVSS VL: DFQMTQSPSTLSASVGDRVTITCRASQSLSSWLAWYQQKPGKAPKLLIYKASSLESGVPSRFSGSGSGTEFTLTISSLQPDDSATFYCQQYETFGQGTKLEIK | binds |
| G001_gp1_V10_VRC01c_177 (antibody, V domains shown) VH: not shown VL: DIQMTQSPSTLSASVGDRVTITCRASQTISSWLAWYQQKPGKAPKLLIYDASSLESGVPSRFSGSGSGTEFTLTITSLQPDDFATYYCQQYETFGPGTKVDIK | binds |
| G001_gp1_V10_VRC01c_173 (antibody, V domains shown) VH: QVQLVQSGADVKKPGASVKVSCKASGYTLTGYYMHWVRQAPGQGLEWMGWINANSGGTNYAQKFQGRVTMTRDTSISTVYMELSRLRSDDTAVYYCAHRAGYCSGGGCSWYFDLWGRGTLVTVSS VL: DIQMTQSPSTLSASVGDRVTITCRASQSSSGWLAWYQQKPGKAPKLLIYKASSLESGVPSRFSGSGSGTEFTLTISSLQPDDFATYYCQQYEAFGQGTKVEIK | binds |
| G001_gp1_V10_VRC01c_2021-0099 (antibody, V domains shown) VH: QVQLVQSGAEVKKPGASVKVSCKASGNTFTDYYMYWVRQAPGQGLEWMGWINPNSGGTNYAQKFQGRVTMTRDTSISTAYMELSRLRSDDTAVYYCAGRHYDDSSGYKAFQHWGQGTLVTVSS VL: DIQMTQSPSTLSASVGDRVTITCRASQSFSSWLAWYQQKPGKAPKLLIYKASSLESGVPSRFSGSGSGTEFTLTISSLQPDDVATYYCQQYETFGQGTKVEIK | binds |
| G001_gp1_V10_VRC01c_2021-0090 (antibody, V domains shown) VH: not shown VL: DNQMTQSPSSLSASVGDRVTITCRASQGISNSLAWYQQKPGKAPKLLLYASSRLESGVPSRFSGSGSGTDYTLTISSLQPEDFATYYCQQYETFGQGTKVEIK | binds |
| G001_gp1_V10_VRC01c_2021-0094 (antibody, V domains shown) VH: QVQLVQSGAEVKKPGASVKVSCKASGYTFTGYYMHWVRQAPGQGLEWMGWINPNSGGTNYAEKFQGWVTMTRDTSISTAYMELRRLKSDDTAVYYCATSLGGNPGRIWDMDVWGQGTTVTVSS VL: QSALTQPASVSGSPGQSITISCTGTSSDVGGYNFVSWYQQHPGKAPKLIIYDVTNRPSGVSNRFSGSKSGNTASLTISGLQAEDEANYYCSSYEVFGTGTKVTVL | binds |
| G001_gp1_V10_VRC01c_172 (antibody, V domains shown) VH: QVQLVQSGAEVKKPGASVKVSCKASGYTFTGYYFYWVRQAPGQGLEWMGWINPNSGGTNSPQKFQGRVSMTRDTSISTAYMEVSSLRSDDTAVYYCARRFTSMGVALDYWGQGTLVTVSS VL: EIVLTQSPGTLSLSPGERATLSCRASQSVSSSSLAWYQQKPGQAPRLLIFGTSSRATGIPDRFSGSGSGTDFTLTISRLEPEDFAVYYCQQYDSFGQGTRLEIK | binds |
| G001_gp1_V10_VRC01c_168 (antibody, V domains shown) VH: QVQLVQSGAEVKKPGASVKVSCKASGYTFTGYHIHWVRQAPGQGLEWMGWINPNSGGTNYARKFQGRVTMTRDTSISTAYMELSRLNSDDTAVYYCAFPLGIRTTGRSWYFDLWGRGTLVTVSS VL: DIQMTQSPSSLSASVGDRVTITCQASQDISNYLNWYQQKPGKAPKILIYDASNLETGVPSRFRGSGSGTDFTFTISSLQPEDIATYYCQQYETFGGGTKVEIK | binds |
| G001_gp1_V10_VRC01c_2021-0095 (antibody, V domains shown) VH: not shown VL: DIQMTQSPSSLSASVGDRVTITCQASQDISNYLNWYQQKPGKAPQLLIYDASNLETGVPSRFSGRGSGTDFTFTISSLQPEDIATYYCQQYDTFGQGTRLEIK | binds |
| G001_gp1_V10_VRC01c_174 (antibody, V domains shown) VH: QVQLVQSGAEVKKPGATVKVSCKASGYTLTDYYMHWVRQAPGQGLEWMGWMNPNSGGTNYGRKFQGRVTMTRDTSINTAYMELSRLRSDDTAVYFCARAREKWPFDYWGQGTLVTVSS VL: DIQMTQSPASLSASVGDRVTITCQASQDISNYVNWYQQKPGKAPKLLINGASNLETGVPSRFSGSGSGTDFTFTISSLQPEDIATYYCQQYENFGPGTKVDIK | binds |
| G001_gp1_V10_VRC01c_181 (antibody, V domains shown) VH: not shown VL: DIQMTQSPSSLSASVGDRVTITCQASQDISNYLNWYQQKPGKAPKLLIYYASNLETGVPSRFSGSGSGTDFTFTISSLQPEDIATYYCQQYGTFGQGTKLEIK | binds |
| G001_gp1_V10_VRC01c_175 (antibody, V domains shown) VH: not shown VL: DIQMTQSPSSLSASVGDRVTITCQASQDISNYLNWYQQKPGKAPKLLIYDASNLETGVPSRFSGSGSGTDFTFTISSLQPEDIATYYCQQWDTFGQGTKLEIK | binds |
| G001_gp1_V10_VRC01c_176 (antibody, V domains shown) VH: QVQLVQSGAEVKRPGASVKVSCRASGYTFTGYYMHWVRQAPGQGLEWMGWINPNSGGTNYAQKFQGRVTMTRDTSITTAYMELSRLNYDDTAVYYCARGDDSSAWRFHSWGQGTLITVSS VL: DIQMTQSPSSLSASVGDRVTITCQASQDSSNYLNWYQQKPGKAPKLLIYDASNLETGVPSRFSGSGSGTDFTFTISSLQPEDIATYYCQQYETFGGGTKVEIK | binds |
| G001_gp1_V10_VRC01c_182 (antibody, V domains shown) VH: QLQLVQSGAEVKKPGASVKVSCQASGFTFSGHYMHWVRQAPGHGLEWMGWINTNSGGTNYARKFQGRVTMTRDTSISTAYMELSRLRSDDTAVYYCATSVWFGASVWNFDNWGQGSLVTVSS VL: ENVLTQSPATLSLSPGERATLSCRASQSVSTHNLAWYQQKPGQAPRLLIYGVFSRATGIPDRFSGSGSGTDFTLTISSLEPEDTAVYYCQQYETFGQGTNVEIK | binds |
| G001_gp1_V10_VRC01c_2021-0088 (antibody, V domains shown) VH: QVQLVQSGAEVKKPGASVKVSCKASGYTFTGYYMHWVRQAPGQGLEWMGWINPNSGGTNYAQKFQDWVTMTRDTSISTAYMELSRLRSDDTAVYFCARVKGHYDSSGGWNFDLWGRGTLVTVSS VL: not shown | binds |
| G001_gp1_V10_VRC01c_170 (antibody, V domains shown) VH: QVQLVQSGAEVKKPGASVKVSCKASGYTFTDYYMHWVRQAPGQGLEWMGWINPNSGGTNYAQKFQDRVTMTRDTSISTGYMELRRLRSDDTAVYYCASHHLTSQGPWWFDPWGQGTLLTVSS VL: EIVLTQSPGTLSLSPGERATLSCRASQSVSSSYLVWYQQKPGQAPRLLIYGASSRATGIPDRFSGRGSGTDFTLTISRLESEDFAVYFCQQYETFGQGTKVEIK | binds |
| G001_gp1_V10_VRC01c_2021-0098 (antibody, V domains shown) VH: QVQLVQSGAEVKKPGASVKVSCKASGNTFSGYYMHWVRQAPGQGLEWMGWINPNSGGTNYAQKFQGWVTMTRDTSISTAYMELSRLRSDDTAVYYCARGGRSAYYSWWFDPWGQGTLVTVSS VL: EIVLTQSPGTLSLSPGERATLSCRASQSVSSSYLAWYQQKPGQAPRLLIYGAFSRATGIPDRFSGSGSGTDFTLTISRLEPEDFAVYYCQQWETFGQGTKVEIK | binds |
| G001_gp1_V10_VRC01c_171 (antibody, V domains shown) VH: QVQLVQSGAEVKRPGASVKVSCKASGYTFTDYYIHWVRQAPGQGLEWMGWINPNSGGTNYARKFQGRVTMTRHTSIGTAYMELSRLRSDDTAVYYCARHIVAAGTWAFDIWGQGTMVTVSS VL: EIVLTQSPGTLSLSPGERATLSCRASQSVSSSYLAWYQQKPGQAPRLLIYGASSRATGIPDRFRGSGSGTDFTLTISRLEPEDFAVYYCQQYETFGQGTKVEIK | binds |
| G001_gp1_V10_VRC01c_2021-0097 (antibody, V domains shown) VH: QVQLVQSGAEVKKPGASVKVSCKASGHTFTGYYMHWVRQAPGQGLEWMGWINSNSGGTNYAQKFQGWVTMTRDTSINTVYMELNRLTSDDTAVYYCAGGGRSTYYSWWFDPWGQGTLVTVSS VL: EIVLTQSPGTLSLSPGERATLSCRASQSVSSSYLAWYQQKPGQAPRLLIYGASSRATGIPDRFSGSGSGTDFTLTISRLEPEDLAVYYCQQWETFGQGTKVEIK | binds |
| G001_gp1_V10_VRC01c_2021-0092 (antibody, V domains shown) VH: QVQLVQSGAEVKKPGASVKVSCKASGYTFTGYYMHWVRQAPGHGLEWMGWINPNSGGSNYAQRFQGWVTMTRDTSISTAYMELTRLRSDDTAVYYCARELLAAAGTVFDYWGQGTLVTVSS VL: EIVLTQSPGTLSLSPGERATLSCRASQSVSSSYLAWYQQKPGQAPRLLIYGASSRATGIPDRFSGSGSGTDFTLTISRLEPEDFAVYYCQQYETFGQGTKVEIN | binds |
| G001_gp1_V10_VRC01c_184 (antibody, V domains shown) VH: QVQLVQSGAEVKKPGASVKVSCKASGYTFTAYYMHWVRQAPGQGLEWMGWINPNSGGTNYAQKFQGRVTMTRDTSITTAYMELSRLRSDDTAVYYCAIESVVRHSWFDPWGQGTLVTVSS VL: EIVLTQSPGTLSLSPGERATLSCRASQNVSSSYLAWYQQKPGQAPRLLIYYASIRATGIPDRFSGSGSGTAFTLTISRLEPEDFAVYYCQQYEAFGQGTKVEIK | binds |
